Results taken from patent US20180188270A1, “DIAGNOSTIC TEST FOR ALZHEIMER'S DISEASE BASED ON IDENTIFICATION OF A PROTEOLYTIC PATHWAY” (Health Research, Inc., priority 2015, published 2018).
Values joined by “and” are separate entries in the source; they are usually repeats but may differ in a detail not shown here. Identical values can stand only once.

What was measured:
plasma Aβ1-42 = experiment: Plasma Aβ1-42 concentration in mice by ELISA; type: in vivo, mouse; conditions: FXII−/− mice, CCl4 0.5 g/kg or hPEPD 4 mg/kg i.p., 24 h
FXII [1] = experiment: Binding to coagulation factor FXII (IP and IB); parameters: species or system human; conditions: 40 nM (hAβ1-42 200 nM) with FXII in PBS, 2 h
Method: Binding reactions were carried out in PBS in a total volume of 100 μl for 2 h at 37° C. To assess binding of hPEPD to HMWK, PK, FXI, FXII or a FXII mutant, hPEPD at 40 nM was incubated with a potential binding partner at 0.5 μM. All FXII mutants are His tagged, while FXII is either 6XHis-tagged (generated in our own laboratory) or not His-tagged (purchased commercially), depending on the experiment. To compare hPEPD and its mutants for binding to FXII, hPEPD or a mutant (40 nM) was incubated with FXII at 0.5 μM. Likewise, to assess binding of mSRC to FXII and its mutants, mSRC (40 nM) was incubated with FXII or a mutant at 0.5 μM. At the end of the incubation, 300 μl PBS containing a specific primary antibody was added to the incubation solution, which was further incubated at 4° C. overnight, followed by IP by protein G-agarose, and the precipitates were analyzed by IB. […] The precipitates were re-dissolved in 30 μl of 2% SDS, which were analyzed along with the supernatants by IB.

plasma mSRC = experiment: Plasma SRC concentration in mice by ELISA; type: in vivo, mouse; conditions: FXII−/− mice, CCl4 0.5 g/kg or hPEPD 4 mg/kg i.p., 24 h
Method: Animal studies. All animal studies were performed in accordance with protocols approved by the Institutional Animal Care and Use Committee at Roswell Park Cancer Institute. Male mice at 7-8 weeks of age were used, including wild type (WT) mice (C57BL/6), and mice deficient in FXII (C57BL/6-FXII^−/−) or FVII (C57BL/6-FVII^tTA/tTA). WT C57BL/6 mice were purchased from Taconic. C57BL/6-FXII^−/− mice and C57BL/6-FVII^tTA/tTA mice were bred in our own facility and genotyped. The breeders were kindly provided by Dr. Francis J. Castellino at University of Notre Dame. […] CCl4 was dissolved in corn oil, whereas all other substances were dissolved in PBS. The vehicle or the test substance was given to mice in 0.1 ml volume per 20 g body weight. Blood was collected from the mice at specific times by cardiac puncture at the time of sacrifice by carbon dioxide, and heart, liver and kidney were also collected from some of the mice. […]
Measurement of plasma levels of PEPD, SRC, Aβ1-42 and FI. […] Upon adequate color development, 100 μl of stop solution (Cell Signaling, 7002) was added to each well, and absorbance at 450 nm was promptly recorded by a microtiter plate reader. Plasma FI concentration was determined using an assay kit (400-374-130050) from GenWay Biotech, following the manufacturer's instruction.

FXII [2] = experiment: FXII activation, chromogenic assay; type: biochemical, human
Method: Measurement of FXII activation. […] FXII activation was followed for 3 h at RT by monitoring the conversion of the chromogenic substrate at 405 nm by a microtiter plate reader.
Each value is mean±SD (n=3).

FX, FII or FVII = experiment: Potential activation of FX, FII or FVII by hPEPD (IB); type: biochemical, human; conditions: hPEPD 40 nM, 5 mM CaCl2, RT, 24 h
Method: Measurement of Potential Activation of FX, FII or FVII by hPEPD. hPEPD (40 nM) was incubated with FX, FIT or FVII […] in PBS at RT in the presence of 5 mM CaCl2 for 24 h, followed by IB analysis for potential activation/cleavage of each coagulation factor. FXa, FIIa and FVIIa were used as positive controls in the experiments.

plasma PEPD = experiment: Plasma PEPD concentration in mice by ELISA; type: in vivo, mouse; conditions: for average plasma level of total PEPD (hPEPD plus mPEPD), increase: hPEPD 10 mg/kg i.p., vs control
Method: Animal studies. All animal studies were performed in accordance with protocols approved by the Institutional Animal Care and Use Committee at Roswell Park Cancer Institute. Male mice at 7-8 weeks of age were used, including wild type (WT) mice (C57BL/6), and mice deficient in FXII (C57BL/6-FXII^−/−) or FVII (C57BL/6-FVII^tTA/tTA). WT C57BL/6 mice were purchased from Taconic. C57BL/6-FXII^−/− mice and C57BL/6-FVII^tTA/tTA mice were bred in our own facility and genotyped. The breeders were kindly provided by Dr. Francis J. Castellino at University of Notre Dame. […] CCl4 was dissolved in corn oil, whereas all other substances were dissolved in PBS. The vehicle or the test substance was given to mice in 0.1 ml volume per 20 g body weight. Blood was collected from the mice at specific times by cardiac puncture at the time of sacrifice by carbon dioxide, and heart, liver and kidney were also collected from some of the mice. Blood was collected into K3 EDTA-containing tubes (Multivette 600 from Sarstedt), unless specified otherwise. All blood samples were promptly centrifuged to obtain plasma samples.
Measurement of plasma levels of PEPD, SRC, Aβ1-42 and FI. […] The plates were washed three times with phosphate buffered saline tween-20 (PBST) and the coated wells were blocked by incubation with 200 μl/well of 1% BSA in PBS for at least 2 h at RT. After another round of wash with PBST, the plates were incubated with appropriately diluted Aβ1-42 standard, SRC standard or plasma samples (100 μl/well) for 2 h at RT. The plates were then washed with PBST and incubated with an anti-Aβ1-42 rabbit polyclonal antibody (sc-9129) or anti-SRC rabbit monoclonal antibody (2123) at 100 μl/well for 2 h at RT. The plates were washed again with PBST, and each well was incubated with a goat anti-rabbit IgG-HRP conjugate (100 μl) for 1 h at RT. After yet another round of wash with PBST, each well was incubated with 100 μl of HRP substrate 3,3′,5,5′-tetramethylbenzedine (Cell Signaling, 7004). Upon adequate color development, 100 μl of stop solution (Cell Signaling, 7002) was added to each well, and absorbance at 450 nm was promptly recorded by a microtiter plate reader. Plasma FI concentration was determined using an assay kit (400-374-130050) from GenWay Biotech, following the manufacturer's instruction.

- binding to FXII (FXII [1]): binds only to FXII
B1: hPEPD: recombinant human prolidase (PEPD), 6xHis tagged to the carboxy terminus (protein, UniProt P12955 2-493, looked up)
Xaa-Pro dipeptidase: AAATGPSFWLGNETLKVPLALFALNRQRLCERLRKNPAVQAGSIVVLQGGEETQRYCTDTGVLFRQESFFHWAFGVTEPGCYGVIDVDTGKSTLFVPRLPASHATWMGKIHSKEHFKEKYAVDDVQYVDEIASVLTSQKPSVLLTLRGVNTDSGSVCREASFDGISKFEVNNTILHPEIVECRVFKTDMELEVLRYTNKISSEAHREVMKAVKVGMKEYELESLFEHYCYSRGGMRHSSYTCICGSGENSAVLHYGHAGAPNDRTIQNGDMCLFDMGGEYYCFASDITCSFPANGKFTADQKAVYEAVLRSSRAVMGAMKPGVWWPDMHRLADRIHLEELAHMGILSGSVDAMVQAHLGAVFMPHGLGHFLGIDVHDVGGYPEGVERIDEPGLRSLRTARHLQPGMVLTVEPGIYFIDHLLDEALADPARASFLNREVLQRFRGFGGVRIEEDVVVTDSGIELLTCVPRTVEEIEACMAGCDKAFTPFSGPK
modifications: C-terminal 6xHis tag
notes: recombinant human prolidase (PEPD), 6xHis tagged to the carboxy terminus
- average plasma level of mAβ1-42, increase (plasma Aβ1-42): remained unchanged
- average plasma level of mSRC, increase (plasma mSRC): remained unchanged
- FXII activation (FXII [2]; FXII 0.97 nM, ZnCl2-containing PBS, RT): did not differ in activating FXII
- Zn2+ requirement of FXII activation (FXII [2]; with or without ZnCl2 15 μM, IB): required Zn^2+
- direct activation of FX, FII or FVII (FX, FII or FVII): does not directly activate any of these factors
- plasma level of total PEPD, increase (plasma PEPD; FVII tTA/tTA mice, hPEPD 0.2 mg/kg i.p., 6 h): 12.0 fold
- plasma level of total PEPD, increase (plasma PEPD; FXII−/− mice, hPEPD 0.2 mg/kg i.p., 6 h, no EP): 12.5 fold
- plasma level of total PEPD, increase (plasma PEPD; FXII−/− mice, hPEPD 4 mg/kg i.p., 24 h): 134.6 fold
- average plasma level of total PEPD, of control (plasma PEPD; WT mice, hPEPD 0.2 mg/kg i.p., 1 h): 51%
- plasma level of total PEPD, decrease (plasma PEPD; WT mice, hPEPD 0.2 mg/kg i.p., 6 h, no EP): 66% and 56.3%
- average plasma level of total PEPD, of control (plasma PEPD; WT mice, hPEPD 0.2 mg/kg i.p., 24 h): 46%
- plasma level of total PEPD, increase (plasma PEPD; WT mice, hPEPD 4 mg/kg i.p., 24 h): 3.3 fold
- average plasma level of total PEPD (hPEPD plus mPEPD), increase (plasma PEPD; WT mice, 1 h): 19.4 fold
- average plasma level of total PEPD (hPEPD plus mPEPD), increase (plasma PEPD; WT mice, 24 h): 15.1 fold
- plasma level of total PEPD, difference between FVII tTA/tTA and WT mice (plasma PEPD; hPEPD 0.2 mg/kg i.p., 6 h): 68.9 fold
- average plasma level of total PEPD, higher in FXII−/− mice than in WT mice (plasma PEPD; hPEPD 0.2 mg/kg i.p., 6 h, no EP): 53.8 fold
